In the supplement of paper PMC12764529:
± gives the half width of the 95% confidence interval.

Columns and labels:
[1] = folding stability dG unfold from chymotrypsin proteolysis; higher = more stable
Outline: (§1)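 Designed mini-proteins (under 80 residues, no cysteine) in a PA-tagged cDNA display construct were digested with trypsin and chymotrypsin. Each protease was used at 11 concentrations (threefold dilutions) plus a no-protease condition, followed by sequencing. K50 was inferred by Bayesian fitting of sequencing counts, and unfolding free energy was derived against a sequence-predicted unfolded-state K50 and a shared folded-state K50, per protease or combined. Only designs with AlphaFold2 dimer inter-PAE above 15 were kept.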

[2] = folding stability dG unfold (combined trypsin and chymotrypsin); higher = more stable
Outline: as §1

[3] = folding stability dG unfold from trypsin proteolysis; higher = more stable
Outline: as §1

Sequence | folding stability dG unfold [1] | folding stability dG unfold [2] | folding stability dG unfold [3]
SAGGSAKTKTITLKIKIVDPKTNKVYEFEIKIEVELTLDKNGKLTAKIKKIEIKAPKNSPLLKKLLSAGGSA [r15_258_TrROS_Hall] | 3.18 ± 0.041 kcal/mol | 2.68 ± 0.24 kcal/mol | 2.57 ± 0.063 kcal/mol
SMSVVVPPDEGLTVTLTTLPGGTIEIHVGDTVLTRDVAPGETLTVTVPPDRTGNTVTVVGPGGVVVTSSGSA [r9_143_JUSTAS] | 0.71 ± 0.024 kcal/mol | 0.95 ± 0.044 kcal/mol | 1.18 ± 0.048 kcal/mol
SKKIKLSEEMKEAIKEAVKKAKPGEKVEITIKLKDGSIIKIEIYPDGTIKISVFDKNGKKIKEFEIKIKPSA [r9_132_TrROS_Hall] | 2.59 ± 0.12 kcal/mol | 1.81 ± 0.44 kcal/mol | 1.43 ± 0.075 kcal/mol
SSSSSRTIEYPDSTLELTFTTTPLPDDTYRVPVQVTRYDPVTKTWSTRNLTVPFPPSDPEAAAEAVIARLLS [r1_171_JUSTAS] | 0.39 ± 0.11 kcal/mol | 0.355 ± 0.092 kcal/mol | 0.11 ± 0.1 kcal/mol
SAGGSAGGSKKKKKPKKKKYIVIKVDMSLEEVKKLISKLLGFEEGEKIEIVKVDPENKYIVIKSAGGSAGGS [r12_815_TrROS_Hall] | 2.35 ± 0.11 kcal/mol | 2.08 ± 0.27 kcal/mol | 2.01 ± 0.072 kcal/mol
SAGGSAGGSAGGSLETRPVLLILKDEEGKPYAVARLEVRELPNGGVEVTVTEIVPAEELSAGGSAGGSAGGS [r4_117_TrMRF] | 1.5 ± 0.095 kcal/mol | 1.36 ± 0.11 kcal/mol | 0.912 ± 0.035 kcal/mol
SAGAPLEVPGPLVTVTEEEVPGKPLVFIPTPDGLIVVDLVTGKAERYPLYSEEPIVLDVPPGVVIELPSAGG [r19_138_JUSTAS] | 0.398 ± 0.13 kcal/mol | 0.819 ± 0.077 kcal/mol | 1.02 ± 0.073 kcal/mol
SAGGSAGGSAGGSLPLILRLAEENGFSVSAVPIPETGTYKAVVTLPDGKPITIELPLTLSAGGSAGGSAGGS [r4_121_TrMRF] | 1.04 ± 0.33 kcal/mol | 0.804 ± 0.2 kcal/mol | 0.295 ± 0.12 kcal/mol
SAGGRKAKVTVTLPDGTVVELELEFKTEEEFEKAVKEKLEELFGKSIEEVPFVEKKVTVYDPEKGSKSESAG [r5_482_JUSTAS] | 2.18 ± 0.12 kcal/mol | 2.04 ± 0.31 kcal/mol | 1.13 ± 0.13 kcal/mol
SAGGSAMTLEEARELVERLVRELFPDAEVLDVDAVRLPDRLVLVDAVVRPKYRPDEVLRFRFLLGDSAGGSA [r15_627_TrMRF] | 4.106 ± 0.032 kcal/mol | 3.94 ± 0.06 kcal/mol | 3.53 ± 0.1 kcal/mol
SAGGSAGGSAGPPDQNFLIKIKWQENGKKREHTIPIPAENLDEVLDELSPWPGLEVEIIPSAGGSAGGSAGG [r17_50_TrROS] | -0.295 ± 0.11 kcal/mol | -0.376 ± 0.19 kcal/mol | -0.408 ± 0.085 kcal/mol
SAGGSAGGSAGGKKKKVIEIELKPGEKLTLEQIKEIAKKLNVKKVKVEKVDGKLKIVVESAGGSAGGSAGGS [r10_642_TrROS_Hall] | 0.892 ± 0.065 kcal/mol | 0.815 ± 0.16 kcal/mol | 0.502 ± 0.057 kcal/mol
SAGGKKKKVKVKVVKVEKLENGTYKVVLEVEVDGKKITLVKEFKTKEDLEKKPKEIEITVEELKKLLKSAGG [r13_540_TrROS_Hall] | 4.32 ± 0.22 kcal/mol | 3.87 ± 0.37 kcal/mol | 2.46 ± 0.13 kcal/mol
SAGGSAGGSAGEVVRVYPTPDGTTVTITPHPTTYTVTTTSPDGVPTTTPVSPAEVAALGLSAGGSAGGSAGG [r17_127_JUSTAS] | -0.25 ± 0.3 kcal/mol | -0.0994 ± 0.2 kcal/mol | -0.0385 ± 0.09 kcal/mol
SAGGSMIPLTVTRYDPNSDKPVSTTPVVYDPETGTWTAYPPDGSRTTYALSLEDLIAALPSTWSVGPSAGGS [r16_543_JUSTAS] | 0.599 ± 0.052 kcal/mol | 0.567 ± 0.044 kcal/mol | 0.452 ± 0.034 kcal/mol
SAGGSFIKITTKLPNRKIEIPIPDAEIEVEGNTVTITFPPGNAEEVKKAVLEASDEVEITEVKIIDESAGGS [r8_490_JUSTAS] | 0.871 ± 0.026 kcal/mol | 0.557 ± 0.087 kcal/mol | -0.107 ± 0.04 kcal/mol
SLEVAAELGLSVSSLEELETDPEKGTRLLRLTAPTPGATVEVLVEVTTRKDSKGETVPEVRVLAVRTVAPSA [r9_613_JUSTAS] | 1.33 ± 0.077 kcal/mol | 1.26 ± 0.07 kcal/mol | 1.15 ± 0.03 kcal/mol
SAGGMEEIEPVTITITVVDEETGEKVEIKITVPKEEITRIEIKPDGTIRIYFKENNEVIEIKLEDIKSAGGS [r16_410_TrROS_Hall] | 4.22 ± 0.19 kcal/mol | 4.16 ± 0.32 kcal/mol | 2.99 ± 0.24 kcal/mol
SAGGMPPGQVVRLRLERVSPTWVRLYFPETGEVLYFPVRPDATLAEAEAIARELAERLGYPVEIETVSAGGS [r16_446_TrMRF] | 3.779 ± 0.014 kcal/mol | 3.8 ± 0.07 kcal/mol | 3.76 ± 0.077 kcal/mol
SAGGSAGGSAGGENPEYKPKLLVLVKLEVNGEYYYREFETLEELENYNDPNLKVVAVADLSAGGSAGGSAGG [r7_793_TrMRF] | 0.653 ± 0.11 kcal/mol | 1.02 ± 0.083 kcal/mol | 1.27 ± 0.033 kcal/mol
SAGGSAGGDYERDPNNGKMKMKPKVEPPPPPKIIQIQIPFPEEADDFMNELQDNGYPIYLSPGGSAGGSAGG [r6_872_TrROS] | 0.179 ± 0.14 kcal/mol | 0.745 ± 0.3 kcal/mol | 1.29 ± 0.18 kcal/mol

Sequence | folding stability dG unfold [1] | folding stability dG unfold [2] | folding stability dG unfold [3]
SAGGSAGGGEMELVLTVPPEEVTPEQLLELVEEIREALEKGGAKAEPVKIDPEKGVVILFRVDPSAGGSAGG [r6_850_TrMRF] | 0.258 ± 0.27 kcal/mol | 0.00838 ± 0.26 kcal/mol | -0.273 ± 0.14 kcal/mol
SAGGSAGGSALDDFKIEEVQYDPDGNTIRFIFKFPGQVWILRIRMPKNGKMEIEWIPADDISAGGSAGGSAG [r3_167_TrROS] | 4.36 ± 0.23 kcal/mol | 4.36 ± 0.18 kcal/mol | 3.96 ± 0.21 kcal/mol
MVAVFEFTFKSEEELLEAAEEVARRLAAELGLPEEELEKIPIEVEVEEIGNEDGEKEYKLTIRFGFPEEFLS [r1_81_TrMRF] | 3.92 ± 0.05 kcal/mol | 3.83 ± 0.13 kcal/mol | 3.51 ± 0.13 kcal/mol
SAGGLTVTLTDSSGNPVTVETELLPDNTLVLTITRTTPSGKTYTRTGIVSIDNTTINLVSFSEWTEDPSAGG [r13_451_JUSTAS] | 3.25 ± 0.08 kcal/mol | 3.02 ± 0.16 kcal/mol | 2.79 ± 0.097 kcal/mol
SAGALEETTLPLPRPESLPDVSPEVLAALILALLSAVGVTVEVLSSDPANPVTAMVATRDGRVVLRALASAG [r5_80_JUSTAS] | 2.34 ± 0.051 kcal/mol | 2.06 ± 0.068 kcal/mol | 1.58 ± 0.049 kcal/mol
SAGEEPPEVTIKVVEKDGKLVIEVEYNGKTLTITLEDGEKIEIKFPEGMSEEELLEEAKRLAKELAEKSAGG [r19_170_TrROS_Hall] | 1.9 ± 0.25 kcal/mol | 2.63 ± 0.39 kcal/mol | 3.05 ± 0.35 kcal/mol
SAGGSMKVEVTVTETSTLGDGTRTYTVAVLIDGTPLTFTFPFTSEEEFREAVEEWAKERGVEITLTPSSAGG [r13_750_JUSTAS] | 4.54 ± 0.049 kcal/mol | 4.25 ± 0.14 kcal/mol | 3.7 ± 0.084 kcal/mol
SAGYKATIIPPDGSEVTIDVKAEDLGPLVEELEKAGLKVESLEVSPDGTAVIPVTSPDGKPYLIVIDLKSAG [r5_645_TrMRF] | 0.305 ± 0.11 kcal/mol | 0.413 ± 0.094 kcal/mol | 0.418 ± 0.032 kcal/mol
SAGGSAGGSMETTREELPPELTVERVTEREPGEGRITVRVKVYRPDGTLLSEEVVERDPEDLESAGGSAGGS [r12_240_JUSTAS] | 0.166 ± 0.14 kcal/mol | 0.295 ± 0.097 kcal/mol | 0.319 ± 0.053 kcal/mol
SAGGSAGGESSRLVAVFKFPPSNPNIKTSISFPSLPKSAKISESQAPFGNEYYLVVVIEVPKNSSAGGSAGG [r6_480_TrMRF] | 3.88 ± 0.14 kcal/mol | 3.37 ± 0.16 kcal/mol | 2.6 ± 0.16 kcal/mol
SAGGFTIEFPLPPGESPDEIKDEIMDMVRPIADEHGFKNVKIPITNVRWQPPGRRRFTINIEIKFPGSAGGS [r8_184_TrROS] | 0.465 ± 0.24 kcal/mol | 0.727 ± 0.22 kcal/mol | 0.723 ± 0.16 kcal/mol
SAGSIPELIREAFPSKVDRVEVTTEKLPNGTTKTTIKVYVDDPEVAERLAKEINELSGEPLENLTVTEESAG [r5_542_JUSTAS] | 0.981 ± 0.039 kcal/mol | 0.652 ± 0.13 kcal/mol | 0.0676 ± 0.11 kcal/mol
SAGGSAGGMTITLRIKITNPDGEEKEIEVELELPEELKGKTLEELAAELAKALLPPGAKVEVEPSAGGSAGG [r6_821_TrROS_Hall] | 3.15 ± 0.074 kcal/mol | 2.72 ± 0.14 kcal/mol | 1.73 ± 0.048 kcal/mol
SAGGSAGGSDEEVEVTLYPVDPSAPDDTVYYAEVTFPNGLVARYRFRKKDGKVEGELVEVKPASAGGSAGGS [r12_1049_TrMRF] | 1.95 ± 0.11 kcal/mol | 1.91 ± 0.083 kcal/mol | 1.65 ± 0.048 kcal/mol
SAGGSAGGSAGGMTITVNGPTATITYPDGSVETIPLTSPEEFEALKAAHPDVEATPASPSAGGSAGGSAGGS [r10_1211_JUSTAS] | 1.21 ± 0.014 kcal/mol | 0.967 ± 0.093 kcal/mol | 0.353 ± 0.047 kcal/mol
SAGGSAGGSKLTIMVKMDSAEDAEEEARSLLKELGIKPGMKEVKVSMFPRGNEYYAHVEIKFKSAGGSAGGS [r12_7_TrROS] | 0.759 ± 0.15 kcal/mol | 0.776 ± 0.12 kcal/mol | 0.672 ± 0.038 kcal/mol
SAGGGVTITLKTADGKTLTLEIPGLTSVTVEPDKVTVEFEIPDYRITITFNPSTGTVEIKISHPDEPESAGG [r13_392_TrMRF] | 3.93 ± 0.19 kcal/mol | 3.8 ± 0.2 kcal/mol | 3.37 ± 0.19 kcal/mol
SAGGSAGGSAGGLVEQAVRAIREAKKAGLKEVVIYLSEEQKEAVKEAAEKEGLKVKIVPESAGGSAGGSAGG [r11_371_TrROS_Hall] | 0.814 ± 0.021 kcal/mol | 0.589 ± 0.086 kcal/mol | 0.244 ± 0.048 kcal/mol
SAGGSAGGSAGGGLEEIKEAIKKLPENVKEITIKLKDGSTIKIRVEKDKDGKYKITIEPSAGGSAGGSAGGS [r10_1017_TrROS_Hall] | 2.68 ± 0.15 kcal/mol | 2.5 ± 0.22 kcal/mol | 2.41 ± 0.3 kcal/mol
SAGGSAGGSAGGDAPNTTVTVTLKAEVYYDPSTGALVVKVTAYFPATNTTVTLEFTFPLSAGGSAGGSAGGS [r10_187_TrMRF] | 4.66 ± 0.25 kcal/mol | 4.76 ± 0.72 kcal/mol | 3.66 ± 0.24 kcal/mol
SAGGMILKITIPKEDEEKAKELADELAKKLEEETGKPIKVKVKVEKNENGELTIVIEVDGKKIEIKLSAGGS [r16_356_TrROS_Hall] | 0.444 ± 0.078 kcal/mol | 0.999 ± 0.27 kcal/mol | 1.32 ± 0.091 kcal/mol
